Consider 2 molecules from publication PMC4769027 (Journal of structural biology, 2016).

This assay addresses wild-type IgG1 Fc (human, UniProt P01857 108-328 = IgG part, N-linked glycan at Asn297). Briefly: SPR. A general note: In SPR one partner is held on a chip, and binding of the other changes the refractive index at the surface.

B1: FcγRIIb ectodomain (receptor, human, UniProt P31994 43-217, looked up)
chain: TPAAPPKAVLKLEPQWINVLQEDSVTLTCRGTHSPESDSIQWFHNGNLIPTHTQPSYRFKANNNDSGEYTCQTGQTSLSDPVHLTVLSEWLVLQTPHLEFQEGETIVLRCHSWKDKPLVKVTFFQNGKSKKFSRSDPNFSIPQANHSHSGDYHCTGNIGYTLYSSKPVTITVQAP
In turn, B1 gave a dissociation constant (Kd) of 9.28 µM.

B2: FcγRIIa H131 variant ectodomain (receptor, human, UniProt P12318 34-211, looked up)
chain: QAAAPPKAVLKLEPPWINVLQEDSVTLTCQGARSPESDSIQWFHNGNLIPTHTQPSYRFKANNNDSGEYTCQTGQTSLSDPVHLTVLSEWLVLQTPHLEFQEGETIMLRCHSWKDKPLVKVTFFQNGKSQKFSHLDPTFSIPQANHSHSGDYHCTGNIGYTLFSSKPVTITVQVPSMG
B2 returned a Kd of 4.49 µM.

The term Kd denotes the equilibrium constant for the complex coming apart.
